{
  "source": "patent US5767072A",
  "about": "(priority 1993, dated 1998)",
  "molecules": {"B1": {"name": "OVA: ovalbumin, carrier protein control (protein, UniProt P01012 2-386, looked up)", "Ovalbumin": "GSIGAASMEFCFDVFKELKVHHANENIFYCPIAIMSALAMVYLGAKDSTRTQINKVVRFDKLPGFGDSIEAQCGTSVNVHSSLRDILNQITKPNDVYSFSLASRLYAEERYPILPEYLQCVKELYRGGLEPINFQTAADQARELINSWVESQTNGIIRNVLQPSSVDSQTAMVLVNAIVFKGLWEKAFKDEDTQAMPFRVTEQESKPVQMMYQIGLFRVASMASEKMKILELPFASGTMSMLVLLPDEVSGLEQLESIINFEKLTEWTSSNVMEERKIKVYLPRMKMEEKYNLTSVLMAMGITDVFSSSANLSGISSAESLKISQAVHAAHAEINEAGREVVGSAEAGVDAASVSEEFRADHPFLFCIKHIATNAVLFFGRCVSP"}},
  "key": {"HIV infected cells": {"system": "HIV infected cells", "assay_type": "cell-based"}, "rgp120 [1]": {"target": "T1, rgp120 (Human immunodeficiency virus type 1 group M subtype B, UniProt P03375)", "experiment": "inhibition of the binding of rCD4-HRP to rgp120 by rCD4 and CD4 peptides", "design": "species or system HIV-1", "conditions": "even at concentrations of 50 μM", "protocol": "The relative affinity of the CD4-peptides-OVA for rgp120 vs rCD4 was calculated by dividing the […]."}, "gp120": {"target": "gp120 (Human immunodeficiency virus type 1 group M subtype B, UniProt P03375)", "assay_type": "binding, HIV-1"}, "rgp120 [2]": {"target": "T1, rgp120", "experiment": "direct ELISA binding of peptide-OVA to rgp120", "design": "species or system HIV-1", "protocol": "CD4-peptide (41-84)-OVA (.circle-solid.); CD4-peptide (40-57)-OVA (.smallcircle.); CD4-peptide (81-92)-OVA (.box-solid.). Control peptide-OVA and OVA (.box-solid.).\nWells coated with rgp120 and blocked as described above were treated with various concentrations of peptide-OVA or OVA (control) in 100 μl and the plate was incubated for 2 hr at 25° C. The plates were washed and then incubated with rabbit IgG anti-OVA coupled to HRP (5 μl/ml) for 2 hr at 25° C. The binding of the labeled antibody was detected as described above. Linear regression curves were generated by plotting the absorption vs the concentration of peptide-OVA."}},
  "note": "Where no end group is shown, it is not given here.",
  "data": [
    {"molecule": "CCN(CC)CCCC(C)Nc1ccnc2cc(Cl)ccc12", "note": "(centres unmarked) [chloroquine]", "values": [
      {"measurement": "anticellular activity against HIV infected cells", "setting": "HIV infected cells", "value": "significant anticellular activity"}
    ]},
    {"molecule": "TYICEVEDGKEE [CD4-peptide (81-92)]", "values": [
      {"measurement": "inhibition of the binding of rCD4 to gp120 by free peptides", "setting": "rgp120 [1]", "value": "did not inhibit the binding of rCD4 to gp120"}
    ]},
    {"molecule": "Gln-Gly-Ser-Phe-Leu-Thr-Lys-Gly-Pro-Ser-Lys-Leu-Asn-Asp-Arg-^3 H-Ala-Asp-Ser [CD4-peptide (40-57)]", "values": [
      {"measurement": "inhibition of the binding of rCD4 to gp120 by free peptides", "setting": "rgp120 [1]", "value": "did not inhibit the binding of rCD4 to gp120"}
    ]},
    {"molecule": "GSFLTKGPSKLNDRADS [peptide 41-57]", "values": [
      {"measurement": "inhibition of the binding of CD4 to gp120", "setting": "gp120", "value": "unable to inhibit the binding of CD4 to gp120"}
    ]},
    {"molecule": "B1", "values": [
      {"measurement": "binding to gp120 in direct ELISA", "setting": "rgp120 [2]", "value": "did not bind gp120"}
    ]}
  ]
}
